Measurements taken from PMC9131517, “Enzymatic N-Allylation of Primary and Secondary Amines Using Renewable Cinnamic Acids Enabled by Bacterial Reductive Aminases” (ACS Sustainable Chemistry & Engineering, 2022).

Columns and labels:
Assay in all cases: initial rate of NADPH consumption
Format in all cases: biochemical, compost metagenome
Settings in all cases: 80 mM cyclopropylamine, 0.3 mM NADPH, pH 7.5 (100 mM NaPi), 30 °C
[1] = substrate: O=C/C=C/c1ccccc1
Description: (§1) initial rate of NADPH consumption on BacRedAm

[2] = substrate: O=C1CCCCC1
Description: as §1

[3] = substrate: O=CCCc1ccccc1
Description: as §1

B1: BacRedAm (compost metagenome) (protein)
chain: MREPIVSAHTERAVESRGADRGSAVTVIGLGSMGSALAGAVLEAGYPTTVWNRTAGKAEPLVRRGAARAATVAEAVSASPTVIACVLDYRALREILSTAGDALAGRTVVNLTNGTPTEARETAAWVEGHGARYLDGGIMAVPEMIGGAESLVLYSGSAEAFETVEPVLRRFGSAMYLGADPGLASLHDLALLAGMYGLFAGFLHAVALVGTEGVRATEFTSSLLIPWLQAMTATLPEAAAQIDAGDYAATGSRLDMQAVALANIVEASRSQGIRPDLMLPIQALVERRVAKGGGGEDIAAVVEEVRG
notes: recombinant, expressed in E. coli BL21, purified
- Km [1]: 2580 µM
- kcat [1]: 0.11 s⁻¹
- Km [2]: 13320 µM
- kcat [2]: 5.12 s⁻¹
- Km [3]: 2980 µM
- kcat [3]: 1.45 s⁻¹
